Columns and labels:
[1] = biological target: T1, soluble dimeric erythropoietin receptor (EpoRFc) (human, UniProt P19235 25-250); experiment: BIAcore, mAb captured on rabbit anti-mouse Fc surface, EpoRFc injected at 0.25-6 ug/ml; soluble dimeric EpoRFc
T1 construct: also called Epo-Rec-Fc; not shown: Fc part
T1 sequence (looked up): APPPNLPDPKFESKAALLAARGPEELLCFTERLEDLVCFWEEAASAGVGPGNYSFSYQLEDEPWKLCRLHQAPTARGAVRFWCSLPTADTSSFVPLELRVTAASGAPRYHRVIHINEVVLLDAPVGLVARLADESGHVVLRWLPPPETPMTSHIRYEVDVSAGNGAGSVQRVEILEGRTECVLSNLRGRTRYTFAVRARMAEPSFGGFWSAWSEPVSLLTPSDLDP
Experimental: (§1) EpoR or EpoRFc diluted in HBS buffer at 0.25–6 ug/ml was then injected for 120 s followed by buffer flow for 240 s and regeneration of the sensor chip surface with an injection of 15 ul 0.1 M phosphoric acid. BIAcore software was used for association and dissociation-phase analysis.

[2] = biological target: T1, soluble dimeric erythropoietin receptor …; experiment: BIAcore, calculated from kass and kdiss; soluble dimeric EpoRFc
Experimental: as §1

[3] = biological target: T2, human erythropoietin receptor on the cell surface (human, UniProt P19235 25-508); experiment: competition with 1 nM 125I-labeled Epo for binding to UT7-Epo cells, 5 hrs at 4 C, cell-bound radioactivity counted; blocked ligand: Epo
T2 construct: whole, on cells; also called wild type EpoR on UT7-Epo cells; cell surface erythropoietin receptors
T2 sequence (looked up): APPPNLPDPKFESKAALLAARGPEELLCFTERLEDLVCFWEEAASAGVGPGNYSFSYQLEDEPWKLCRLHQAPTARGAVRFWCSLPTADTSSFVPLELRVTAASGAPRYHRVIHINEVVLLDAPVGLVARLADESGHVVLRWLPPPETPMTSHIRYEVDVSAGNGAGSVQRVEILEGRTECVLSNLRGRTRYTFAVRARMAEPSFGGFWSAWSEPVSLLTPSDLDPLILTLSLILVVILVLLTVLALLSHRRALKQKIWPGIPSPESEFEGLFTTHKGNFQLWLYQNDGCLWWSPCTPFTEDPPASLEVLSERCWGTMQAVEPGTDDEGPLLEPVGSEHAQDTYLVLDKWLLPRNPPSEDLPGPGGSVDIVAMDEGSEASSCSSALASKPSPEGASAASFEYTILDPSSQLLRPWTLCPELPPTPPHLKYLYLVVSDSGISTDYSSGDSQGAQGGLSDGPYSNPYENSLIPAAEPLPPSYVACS
Experimental: Following 5 hrs incubation at 4° C., the cells were spun through horse serum, frozen, and the pellets clipped off and radioactivity counted. […] Hematocrit was measured following a single i.v. dose of Hz3G9 at 0.1, 0.5, 1 and 5 mg/kg into cynomolgus macaques.

B1: murine monoclonal antibody 3G9 (antibody, V domains shown)
VH: QVQLQQPGAELVKSGASVKLSCKASGSTFTSYWMHWVKQRPGRGLEWIGRIDPNSGGTKDNEKFKSKATLTVDKPSSTAYMQLSSLTSEDSAVYYCARETYYDSSFAYWGQGTLVTVSA
VL: DIVMTQSQKFMSTSVGDRVSVTCKASQNVGTNVAWYQQKPGQSPKALIYSASYRYSGVPDRFTGSGSGTDFTLTISNVQSEDLAEYFCQQYNSYPLTFGAGTKLELKR
modifications: amino terminus of the heavy chain blocked with pyroglutamic acid
notes: Mouse hybridoma antibody; also called 3G9 mAb; Mab 3G9
- koff [1]: 0.0019 s⁻¹
- kon [1]: 3e+06 M⁻¹ s⁻¹
- Kd [2]: 600 pM
- IC50 (read off the curve) [3]: ~1 ng/mL

— patent US6998124 (GlaxoSmithKline, dated 2006)
